These results are taken from patent publication US20200055939A1 (Genentech, published 2020).

The % Inhibition is the relative decrease from the control value, in per cent. The low end stands for a weak effect, the high end for a strong effect. The Kd is a measure of binding affinity in units of concentration. The low end stands for tighter binding, the high end for weaker binding.

Residue numbers refer to the chain shown, from its start.

Experiment [1] has as its target T1, MICA*008 on MEL-JUSO cells (human, UniProt Q29983 24-317).
T1 chain: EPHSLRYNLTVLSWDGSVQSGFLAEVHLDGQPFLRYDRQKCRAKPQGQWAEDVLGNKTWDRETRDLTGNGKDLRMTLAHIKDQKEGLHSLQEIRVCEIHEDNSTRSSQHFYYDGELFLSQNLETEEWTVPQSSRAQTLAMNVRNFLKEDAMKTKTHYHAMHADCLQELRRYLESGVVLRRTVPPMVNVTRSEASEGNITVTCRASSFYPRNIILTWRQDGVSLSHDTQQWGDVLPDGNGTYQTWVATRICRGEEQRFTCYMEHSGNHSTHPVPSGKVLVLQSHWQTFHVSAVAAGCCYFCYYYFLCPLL
Put plainly: cell-based or functional assay.

The target of experiment [2] is MICA*004 on HCC1534 cells (human, UniProt Q29983 24-383). Put plainly: cell-based or functional assay.
Experiment [3] has as its target MICB*005 on HCC1534 cells (human). In words: cell-based or functional assay.
The target in a further experiment is T2, huMICA*008 alpha 3-his (human).
T2 construct: whole construct entry: GS, alpha 3 domain (Thr204-Ser297), GNS, His8; also the construct of the FPOP experiment; also called MICA008.His; MICA*008 alpha3 construct
T2 chain: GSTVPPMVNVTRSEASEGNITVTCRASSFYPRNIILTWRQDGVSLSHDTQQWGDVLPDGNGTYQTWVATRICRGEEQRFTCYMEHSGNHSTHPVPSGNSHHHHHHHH
In words: SPR, Biacore 8K, antibody on Protein A chip. Background: SPR reads the build-up and loss of mass on a sensor chip optically.

Another experiment concerns the target T3, huMICB*005 alpha 3-his (human).
T3 construct: whole construct entry: GS, alpha 3 domain, GNS, His8; also called MICB005.His; MICB*005 alpha3 construct
T3 chain: T2 chain with R12C, A15V, I35T, D48N, C72R, R73Q, S90G
In words: SPR, Biacore 8K, antibody on Protein A chip.

The target in a further experiment is T4, huMICA*002 alpha 3-his (human).
T4 construct: whole construct entry: GS, alpha 3 domain, GNS, His8; also called MICA002.His; MICA*002 alpha3 construct
T4 chain: T2 chain with S28G, R32W, I35T, T37S, R73Q
In words: SPR, Biacore 8K, antibody on Protein A chip.

A further experiment deals with T5, huMICA*004 alpha 3-his (human).
T5 construct: whole construct entry: GS, alpha 3 domain, GNS, His8; also called MICA004.His; MICA*004 alpha3 construct
T5 chain: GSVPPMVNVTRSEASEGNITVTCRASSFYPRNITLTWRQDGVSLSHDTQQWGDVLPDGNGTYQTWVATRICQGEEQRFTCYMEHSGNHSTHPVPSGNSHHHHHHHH
In words: SPR, Biacore 8K, antibody on Protein A chip.

Protocol for huMICA*002 alpha 3-his: (§1) A Protein A sensorchip (GE Healthcare) was used following manufacturer provided protocols to capture humanized anti-MICA/B antibodies. The MICA/B alleles were passed over. Antibody binding was measured to human MICA 002, 004, 008 and MICB 005 alpha 3 domains (His tagged, in-house). Sensograms for binding of MICA/B were recorded using an injection time of 2 minutes with a flow rate of 30 ml/min, at a temperature of 25° C., and with a running buffer of 10 mM HEPES, pH 7.4, 150 mM NaCl, 3mM EDTA, and 0.005% Tween 20. After injection, disassociation of the alpha 3 domain from the antibody was monitored for 10 minutes in running buffer. The surface was regenerated between binding cycles with a 60 ul injection of 10 mM Glycine HCl pH 1.5. […] The data was analyzed using a 1:1 binding model. Sensograms of MICA alleles binding to captured anti-MICA antibody were used to calculate the dissociation constant (Kd).
Protocol for huMICA*004 alpha 3-his: as §1
Protocol for huMICA*008 alpha 3-his: as §1
Protocol for huMICB*005 alpha 3-his: as §1

B1: 1D5v6 (antibody, IgG1, V domains shown)
VH: EVQLVQSGAEVKKPGASVKVSCKASGYAFTSQNIYWVRQAPGQGLEWMGYIEPYNVVPMYNPKFKGRVTMTTDTSTSTAYMELRSLRSDDTAVYYCARSGSSNFDYWGQGTLVTVSS
VL: EIVLTQSPDFQSVTPKEKVTITCSASSSISSHYLHWYQQKPDQSPKLLIKRTSNLASGVPSRFSGSGSGTDFTLTINSLEAEDAATYYCQQGSSLPLTFGQGTKVEIK
notes: humanized variant of 1D5
In the case of B1, the “% Inhibition” value amounted to 51% in experiment [1], 47% in experiment [2] and 37% in experiment [3]. For the same molecule, the Kd with huMICA*008 alpha 3-his came to 2.61 nM; with huMICB*005 alpha 3-his it was 6.15 nM; with huMICA*002 alpha 3-his, 3.69 nM; with huMICA*004 alpha 3-his, 2.91 nM.

B2: 1D5v11 (antibody, IgG1, V domains shown)
VH: B1 VH with V2I, M48I, V68A, M70L, T72V, T74K, M81L, R84S, D89E
VL: DIQLTQSPSSLSASVGDRVTITCSASSSISSHYLHWYQQKPGKSPKLLIYRTSNLASGVPSRFSGSGSGTDYTLTISSLQPEDFATYYCQQGSSLPLTFGQGTKVEIK
notes: humanized variant of 1D5
For B2, the “% Inhibition” value stood at 56% in experiment [1], 52% in experiment [2] and 36% in experiment [3]. Moreover, the Kd with huMICA*008 alpha 3-his is 0.78 nM; with huMICB*005 alpha 3-his, 1.38 nM; with huMICA*002 alpha 3-his it was 1.09 nM; in the experiment with huMICA*004 alpha 3-his, 0.83 nM.

B3: 1D5v7 (antibody, IgG1, V domains shown)
VH: B1 VH with V2I, M48I, V68A, M70L, T72V, T74K, M81L, R84S, D89E
VL: B1 VL
notes: humanized variant of 1D5
B3: the figures for the “% Inhibition” value in experiment [1], in experiment [2] and in experiment [3] were 51%, 48% and 42%, respectively. For the same molecule, the Kd with huMICA*008 alpha 3-his was 1.7 nM; with huMICB*005 alpha 3-his, 3.31 nM; with huMICA*002 alpha 3-his it was 2.21 nM; with huMICA*004 alpha 3-his, 1.67 nM.

B4: 1D5v12 (antibody, IgG1, V domains shown)
VH: B1 VH with M48I, M70I, T72R, M81L, R84S, D89E
VL: B2 VL
notes: humanized variant of 1D5
As for B4, the “% Inhibition” value in experiment [1] was determined as 44%; in experiment [2] it was 50%; in experiment [3], 27%. The Kd in the experiment with huMICA*008 alpha 3-his amounted to 3.66 nM; with huMICB*005 alpha 3-his it was 9.16 nM; with huMICA*002 alpha 3-his it was 4.64 nM; with huMICA*004 alpha 3-his, 3.91 nM.

B5: 1D5v17 (antibody, IgG1, V domains shown)
VH: B1 VH with V2I, M48I, V68A, M70L, T72V, T74K, M81L, R84S, D89E
VL: B2 VL with L4M
notes: humanized variant of 1D5
Turning to B5, the “% Inhibition” value is 68% in experiment [1], 52% in experiment [2] and 50% in experiment [3]. Also, the Kd with huMICA*008 alpha 3-his amounted to 0.64 nM; with huMICB*005 alpha 3-his it was 1.01 nM; in the experiment with huMICA*002 alpha 3-his, 0.91 nM; in the experiment with huMICA*004 alpha 3-his, 0.68 nM.

B6: 1D5v13 (antibody, IgG1, V domains shown)
VH: B1 VH with V2I, M48I, V68A, M70L, T72V, T74K
VL: B2 VL with L4M, S44A, Y72F
notes: humanized variant of 1D5
Regarding B6, the “% Inhibition” value in experiment [1] was determined as 51%; in experiment [2], 49%; in experiment [3] it was 43%. Besides, the Kd amounted to 0.85 nM in the experiment with huMICA*008 alpha 3-his, 1.48 nM with huMICB*005 alpha 3-his, 1.2 nM with huMICA*002 alpha 3-his and 0.91 nM with huMICA*004 alpha 3-his.

B7: 1D5v21 (antibody, IgG1, V domains shown)
VH: B1 VH with V2I, M48I, V68A, M70I, T72V, T74K, M81L, R84S, D89E
VL: B2 VL
notes: humanized variant of 1D5
For B7, the “% Inhibition” value in experiment [1] came out at 62%; in experiment [2] it was 55%; in experiment [3] it was 25%. Also, the Kd with huMICA*008 alpha 3-his is 0.99 nM; in the experiment with huMICB*005 alpha 3-his, 1.98 nM; with huMICA*002 alpha 3-his it was 1.35 nM; in the experiment with huMICA*004 alpha 3-his, 1.08 nM.

B8: 1D5v20 (antibody, IgG1, V domains shown)
VH: B1 VH with V2I, M48I, M70L, T72V, T74K, M81L, R84S, D89E
VL: B2 VL
notes: humanized variant of 1D5
Consider B8, for which the “% Inhibition” value in experiment [1] amounted to 56%; in experiment [2], 46%; in experiment [3] it was 39%. Besides, the Kd with huMICA*008 alpha 3-his was 0.83 nM; in the experiment with huMICB*005 alpha 3-his, 1.57 nM; with huMICA*002 alpha 3-his, 1.14 nM; with huMICA*004 alpha 3-his, 0.88 nM.

B9: 1D5v10 (antibody, IgG1, V domains shown)
VH: B1 VH
VL: B2 VL
notes: humanized variant of 1D5
Turning to B9, the “% Inhibition” value turned out to be 58% in experiment [1], 62% in experiment [2] and 43% in experiment [3]. Also, the Kd with huMICA*008 alpha 3-his came to 1.05 nM; with huMICB*005 alpha 3-his, 1.98 nM; in the experiment with huMICA*002 alpha 3-his, 1.44 nM; with huMICA*004 alpha 3-his, 1.08 nM.

B10: 1D5v8 (antibody, IgG1, V domains shown)
VH: B1 VH with M48I, M70I, T72R, M81L, R84S, D89E
VL: B1 VL
notes: humanized variant of 1D5
For B10, the “% Inhibition” value in experiment [1] turned out to be 52%; in experiment [2], 42%; in experiment [3], 35%. In addition, the Kd in the experiment with huMICA*008 alpha 3-his was found to be 9.08 nM; with huMICB*005 alpha 3-his, 18.8 nM; in the experiment with huMICA*002 alpha 3-his, 11.3 nM; with huMICA*004 alpha 3-his, 9.41 nM.

B11: 1D5v22 (antibody, IgG1, V domains shown)
VH: B1 VH with V2I, M48I, V68A, M70L, T72R, T74K, M81L, R84S, D89E
VL: B2 VL
notes: humanized variant of 1D5
Take B11: the “% Inhibition” value worked out at 57% in experiment [1], 46% in experiment [2] and 34% in experiment [3]. The Kd in the experiment with huMICA*008 alpha 3-his came to 4.98 nM; with huMICB*005 alpha 3-his it was 13.2 nM; with huMICA*002 alpha 3-his, 6.46 nM; in the experiment with huMICA*004 alpha 3-his it was 5.45 nM.

B12: 1D5v16 (antibody, IgG1, V domains shown)
VH: B1 VH with M48I, M70I, T72R, M81L, R84S, D89E
VL: B2 VL with L4M, S44A, Y72F
notes: humanized variant of 1D5
In the case of B12, the entries for the “% Inhibition” value in experiment [1], in experiment [2] and in experiment [3] were 51%, 50% and 51%, respectively. The Kd in the experiment with huMICA*008 alpha 3-his amounted to 3.21 nM; in the experiment with huMICB*005 alpha 3-his, 8.37 nM; with huMICA*002 alpha 3-his, 4.09 nM; in the experiment with huMICA*004 alpha 3-his, 3.42 nM.

B13: 1D5v9 (antibody, IgG1, V domains shown)
VH: B1 VH with V2I, M48I, V68A, M70L, T72V, T74K
VL: B2 VL
notes: humanized variant of 1D5
B13: the “% Inhibition” value in experiment [1] was 49%; in experiment [2], 53%; in experiment [3] it was 41%. Further, the Kd with huMICA*008 alpha 3-his stood at 0.87 nM; with huMICB*005 alpha 3-his it was 1.51 nM; with huMICA*002 alpha 3-his, 1.31 nM; in the experiment with huMICA*004 alpha 3-his it was 0.95 nM.

B14: 1D5v15 (antibody, IgG1, V domains shown)
VH: B1 VH with V2I, M48I, V68A, M70L, T72V, T74K, M81L, R84S, D89E
VL: B2 VL with L4M, S44A, Y72F
notes: humanized variant of 1D5
On to B14, for which the “% Inhibition” value in experiment [1] was 48%; in experiment [2] it was 45%; in experiment [3] it was 39%. In addition, the Kd in the experiment with huMICA*008 alpha 3-his is 0.76 nM; with huMICB*005 alpha 3-his, 1.26 nM; in the experiment with huMICA*002 alpha 3-his, 1.06 nM; in the experiment with huMICA*004 alpha 3-his, 0.81 nM.

B15: 1D5v23 (antibody, IgG1, V domains shown)
VH: B1 VH with V2I, M48I, V68A, M70L, T72V, M81L, R84S, D89E
VL: B2 VL
notes: humanized variant of 1D5
In the case of B15, the “% Inhibition” value in experiment [1] was 63%; in experiment [2], 50%; in experiment [3], 38%. Further, the Kd with huMICA*008 alpha 3-his came to 0.58 nM; with huMICB*005 alpha 3-his, 1.65 nM; with huMICA*002 alpha 3-his, 1.11 nM; with huMICA*004 alpha 3-his, 0.9 nM.

B16: 1D5v19 (antibody, IgG1, V domains shown)
VH: B1 VH with M48I, V68A, M70L, T72V, T74K, M81L, R84S, D89E
VL: B2 VL
notes: humanized variant of 1D5
For the molecule B16, the “% Inhibition” value stood at 57% in experiment [1], 44% in experiment [2] and 40% in experiment [3]. Moreover, the Kd with huMICA*008 alpha 3-his is 0.83 nM; with huMICB*005 alpha 3-his, 1.51 nM; with huMICA*002 alpha 3-his, 1.16 nM; with huMICA*004 alpha 3-his, 0.88 nM.

B17: 1D5v18 (antibody, IgG1, V domains shown)
VH: B1 VH with V2I, M48I, V68A, M70L, T72V, T74K, M81L, R84S, D89E
VL: B2 VL with Y72F
notes: humanized variant of 1D5
B17: the “% Inhibition” value was 64% in experiment [1], 47% in experiment [2] and 41% in experiment [3]. Moreover, the Kd with huMICA*008 alpha 3-his came to 0.75 nM; with huMICB*005 alpha 3-his, 1.41 nM; with huMICA*002 alpha 3-his it was 1.04 nM; with huMICA*004 alpha 3-his, 0.79 nM.
